Results as given in article PMC12162048 (Blood Vessels, Thrombosis & Hemostasis, 2024).

What was measured:
[1] = molecular target: T1, protein S, purified, P07225; assay: native gel or EMSA; settings: remark: other sources report otherwise
T1 chain: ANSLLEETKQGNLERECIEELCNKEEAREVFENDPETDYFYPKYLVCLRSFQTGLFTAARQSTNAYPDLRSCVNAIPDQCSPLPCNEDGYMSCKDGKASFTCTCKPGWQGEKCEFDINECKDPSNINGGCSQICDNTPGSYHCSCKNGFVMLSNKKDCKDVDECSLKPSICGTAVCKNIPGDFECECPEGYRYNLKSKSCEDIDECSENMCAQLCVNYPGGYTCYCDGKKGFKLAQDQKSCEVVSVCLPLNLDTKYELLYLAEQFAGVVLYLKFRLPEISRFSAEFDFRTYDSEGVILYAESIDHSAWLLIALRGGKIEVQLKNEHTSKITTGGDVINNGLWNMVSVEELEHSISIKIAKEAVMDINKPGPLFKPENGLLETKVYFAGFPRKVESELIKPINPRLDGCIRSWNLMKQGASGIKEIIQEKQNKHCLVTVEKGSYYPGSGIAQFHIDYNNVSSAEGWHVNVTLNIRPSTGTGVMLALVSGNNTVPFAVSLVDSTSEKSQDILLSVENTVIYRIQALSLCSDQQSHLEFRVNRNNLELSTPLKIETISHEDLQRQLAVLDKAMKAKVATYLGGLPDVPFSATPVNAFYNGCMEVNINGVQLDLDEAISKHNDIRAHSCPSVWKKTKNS

[2] = molecular target: von Willebrand factor of plasma (human (endogenous in plasma), UniProt P04275 764-2813); assay: ELISA

B1: protein S, purified, P07225 42-676 (natural protein)
chain: T1 chain
stoichiometry N [1]: 2

B2: biotinylated protein S (natural protein)
chain: T1 chain
modifications: biotin (biotinylated, sites not stated)
fold change of the apparent interaction with MerTK against without MerTK [2]: ~2 fold
